Assay results published in US20260167718A1 (Merck Sharp & Dohme, published 2026).

What was measured:
[1] = target: T1, rhesus ILT3-His tagged recombinant protein (rhesus monkey (Macaca mulatta)); assay: Biacore SPR, column rhILT3 KD (nM)
T1 construct: also called ILT3_MM; not shown: His tag
T1 chain: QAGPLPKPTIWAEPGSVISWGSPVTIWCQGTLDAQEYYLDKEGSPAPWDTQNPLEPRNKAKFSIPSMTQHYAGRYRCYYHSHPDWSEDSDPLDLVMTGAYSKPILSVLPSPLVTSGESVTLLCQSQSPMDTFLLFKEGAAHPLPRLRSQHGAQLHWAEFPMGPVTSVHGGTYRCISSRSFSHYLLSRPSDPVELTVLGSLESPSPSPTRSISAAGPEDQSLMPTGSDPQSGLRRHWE

[2] = target: T2, Human ILT3 (LILRB4) extracellular domain with C-terminal His Tag (human, UniProt Q8NHJ6 22-259); assay: Biacore SPR, column huILT3 KD (nM)
T2 construct: the claims count residues 1-238 as the extracellular domain; also called human ILT3-His; ILT3_H

[3] = target: T1, rhesus ILT3-His tagged recombinant …; assay: SPR (Biacore), rhesus ILT3-His
Protocol: (§1) The binding kinetics and affinities of anti-human ILT3 clones for human or rhesus ILT3-His tagged recombinant protein were measured by surface plasmon resonance using a Biacore™ T200 system (GE Healthcare, Piscataway, NJ). HBS-EP+ buffer (BR-1006-69) was used as the running buffer. Anti-human Fc antibody (Human Fc Capture Kit, BR100839, GE Healthcare) was immobilized via amine coupling chemistry in all four flow cells on a Series S CM5 sensor chip (BR100530 or 29149603, GE Healthcare) following manufacturer instructions. Flow cell 1 was used as reference for background subtraction and was not used for capture. […] Following each injection cycle, all four flow cells were regenerated using 30 second injection of 3M MgCl₂ solution at a flow rate of 10 μL/minute. Reference subtracted sensorgrams were fit to a 1:1 Langmuir Binding Model in the Biacore™ T200 Evaluation Software (Version 2.0) to determine the association (ka) and dissociation (kd) rate constants and the equilibrium dissociation constant KD (=kd/ka).

[4] = target: T2, Human ILT3 (LILRB4) extracellular …; assay: SPR (Biacore), human ILT3-His
Protocol: as §1

[5] = target: T3, Rhesus monkey ILT3 expressed on CHO-K1 cells (rhesus monkey (Macaca mulatta)); assay: cELISA, CHO rhesus ILT3 cells
T3 construct: whole, on cells; also called rhILT3; CHO-rhesus ILT3

[6] = target: T4, human ILT3 expressed on cells (human, UniProt Q8NHJ6 22-448); assay: cELISA, CHO human ILT3 cells
T4 construct: whole, on cells; also called huILT3; LILRB4

Row | Binder | Kd [1] [nM] | Kd [2] [nM] | Kd [3] [nM] | Kd [4] [nM] | EC50 [5] [µg/mL] | EC50 [6] [µg/mL]
1 | Humanized anti-ILT3 mAb ((52B8 VH1 M64V/VL2) L234A L235A D265S) IgG1/Kappa (antibody, also called mAb 25) heavy: not shown light: DIVLTQSPDSLAVSLGERATINCRASEKVDSFGNSFMHWYQQKPGQPPKLLIYLTSNLDSGVPDRFSGSGSGTDFTLTISSLQAEDVAVYYCQQNNEDPYTFGQGTKLEIKRTVAAPSVFIFPPSDEQLKSGTASVVCLLNNFYPREAKVQWKVDNALQSGNSQESVTEQDSKDSTYSLSSTLTLSKADYEKHKVYACEVTHQGLSSPVTKSFNRGEC | 8.66 | 0.74 | 8.7 | 0.74 | – | –
2 | Humanized anti-ILT3 mAb (52B8 VH1 M64L/VL2) IgG4 S228P/Kappa (antibody, V domains shown, also called mAb 18) VH: EVQLVESGGGLVQPGGSLRLSCAASGFTFSNYGMSWVRQAPGKGLEWVATISGGGDYTNYPDSLRGRFTISRDNAKNSLYLQMNSLRAEDTAVYYCGRRLWFRSLYYAMDYWGQGTLVTVSS VL: DIVLTQSPDSLAVSLGERATINCRASEKVDSFGNSFMHWYQQKPGQPPKLLIYLTSNLDSGVPDRFSGSGSGTDFTLTISSLQAEDVAVYYCQQNNEDPYTFGQGTKLEIKR | – | – | 22 | 1 | 0.137 | 0.079
3 | Humanized anti-ILT3 mAb (52B8 VH2 M64L/VL2) IgG4 S228P/Kappa (antibody, V domains shown, also called mAb 22) VH: EVQLVESGGGLVQPGGSLRLSCAASGFTFSNYGMSWVRQAPGKGLEWVATISGGGDYTNYPDSLRGRFTISRDNAKNSLYLQMNSLKAEDTAVYYCGRRLWFRSLYYAMDYWGQGTLVTVSS VL: DIVLTQSPDSLAVSLGERATINCRASEKVDSFGNSFMHWYQQKPGQPPKLLIYLTSNLDSGVPDRFSGSGSGTDFTLTISSLQAEDVAVYYCQQNNEDPYTFGQGTKLEIKR | – | – | 21 | 0.97 | 0.081 | 0.057
4 | Humanized anti-ILT3 mAb (52B8 VH2/VL3) IgG4 S228P/Kappa (antibody, V domains shown, also called mAb 7) VH: EVQLVESGGGLVQPGGSLRLSCAASGFTFSNYGMSWVRQAPGKGLEWVATISGGGDYTNYPDSMRGRFTISRDNAKNSLYLQMNSLKAEDTAVYYCGRRLWFRSLYYAMDYWGQGTLVTVSS VL: EIVLTQSPATLSLSPGERATLSCRASEKVDSFGNSFMHWYQQKPGQAPRLLIYLTSNLDSGVPARFSGSGSRTDFTLTISSLEPEDFAVYYCQQNNEDPYTFGQGTKLEIKR | – | – | 26 | 0.96 | – | –
5 | Humanized anti-ILT3 mAb (52B8 VH2/VL2) IgG4 S228P/Kappa (antibody, V domains shown, also called mAb 6) VH: EVQLVESGGGLVQPGGSLRLSCAASGFTFSNYGMSWVRQAPGKGLEWVATISGGGDYTNYPDSMRGRFTISRDNAKNSLYLQMNSLKAEDTAVYYCGRRLWFRSLYYAMDYWGQGTLVTVSS VL: DIVLTQSPDSLAVSLGERATINCRASEKVDSFGNSFMHWYQQKPGQPPKLLIYLTSNLDSGVPDRFSGSGSGTDFTLTISSLQAEDVAVYYCQQNNEDPYTFGQGTKLEIKR | – | – | 21 | 1.1 | 0.118 | 0.1
6 | Humanized anti-ILT3 mAb (52B8 VH2 M64L/VL1) IgG4 S228P/Kappa (antibody, V domains shown, also called mAb 21) VH: EVQLVESGGGLVQPGGSLRLSCAASGFTFSNYGMSWVRQAPGKGLEWVATISGGGDYTNYPDSLRGRFTISRDNAKNSLYLQMNSLKAEDTAVYYCGRRLWFRSLYYAMDYWGQGTLVTVSS VL: DIVLTQSPDSLAVSLGERATINCRASEKVDSFGNSFMHWYQQKPGQPPKLLIYLTSNLDSGVPDRFSGSGSRTDFTLTISSLQAEDVAVYYCQQNNEDPYTFGQGTKLEIKR | – | – | 27 | 0.88 | 0.112 | 0.079
7 | Humanized anti-ILT3 mAb (52B8 VH1 M64V/VL5 N34Q) IgG4 S228P/Kappa (antibody, V domains shown, also called mAb 46; humanized 52B8) VH: EVQLVESGGGLVQPGGSLRLSCAASGFTFSNYGMSWVRQAPGKGLEWVATISGGGDYTNYPDSVRGRFTISRDNAKNSLYLQMNSLRAEDTAVYYCGRRLWFRSLYYAMDYWGQGTLVTVSS VL: DIQLTQSPSSLSASVGDRVTITCRASEKVDSFGQSFMHWYQQKPGKAPKLLIYLTSNLDSGVPSRFSGSGSGTDFTLTISSLQPEDFATYYCQQNNEDPYTFGQGTKLEIKR | – | – | 15 | 0.77 | 0.12 | 0.088
8 | Humanized anti-ILT3 mAb (52B8 VH2/VL4) IgG4 S228P/Kappa (antibody, V domains shown, also called mAb 8) VH: EVQLVESGGGLVQPGGSLRLSCAASGFTFSNYGMSWVRQAPGKGLEWVATISGGGDYTNYPDSMRGRFTISRDNAKNSLYLQMNSLKAEDTAVYYCGRRLWFRSLYYAMDYWGQGTLVTVSS VL: EIVLTQSPATLSLSPGERATLSCRASEKVDSFGNSFMHWYQQKPGQAPRLLIYLTSNLDSGIPARFSGSGSGTDFTLTISSLEPEDFAVYYCQQNNEDPYTFGQGTKLEIKR | – | – | 27 | 1.3 | – | –
